The values below come from PMC10207894, “A MOF/DNA luminescent sensing platform for detection of potential COVID-19 biomarkers and drugs†”.

The series concerns the target interleukin-10 (IL-10) (UniProt P22301 19-178). Description: luminescence quenching on Y-MOF; 1 uM protein; no obvious quenching at 514 nm; Y-MOF suspension 0.1 g/L (900 uL) mixed with 1 uM DNA (100 uL) 30 min; excitation 380 nm, IL-6 0-14.4 nM; buffer, salt, pH and temperature not stated. To be noted: protein: commercial; chain copies: 2; label: 5'-FAM; stem-loop.

interleukin-10 (IL-10), sequence (P22301 19-178): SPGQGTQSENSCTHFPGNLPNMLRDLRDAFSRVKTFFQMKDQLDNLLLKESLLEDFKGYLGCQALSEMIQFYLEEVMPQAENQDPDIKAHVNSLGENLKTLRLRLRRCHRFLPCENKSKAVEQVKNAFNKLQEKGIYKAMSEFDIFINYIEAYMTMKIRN

B1: S2 (extended IL-6 aptamer) (structured_DNA)
DNA: TTTTTTTAAGCTTACCTGCCATGCCAGTACCCCCAGGAGAAGATTCCAAAGATGTGGCCGCCCCACAAAAAAAA
Take B1: the binding result is “no binding”.
